The results in this text go back to patent US20220144956A1 (published 2022).

First the molecules themselves.
B1: H1 L1.12 XENP34575 (antibody, V domains shown)
VH: QLQVQESGPGLVKPSETLSLTCTVSGGSISNSYFSWGWIRQPPGKGLEWIGSFYYGEKTYYNPSLKSRATISIDTSKSQFSLKLSSVTAADTAVYYCPRGPTMIRGVIDSWGQGTLVTVSS
VL: EIVLTQSPATLSLSPGERATLSCRASQSVRTYLAWYQQKPGQAPRLLIYDASNRATGIPARFSGSGSGTDFTLTISSLEPEDFAVYYCQQRSNWPPTFGQGTKVEIK
B2: H1 L1.40 XENP34603 (antibody, V domains shown)
VH: B1 VH
VL: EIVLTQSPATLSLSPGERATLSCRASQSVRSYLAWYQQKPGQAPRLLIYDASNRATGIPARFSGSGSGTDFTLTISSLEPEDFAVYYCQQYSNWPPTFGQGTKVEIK
B3: H1 L1.22 XENP34585 (antibody, V domains shown)
VH: B1 VH
VL: B1 VL with T31S, D50S
B4: H1 L1.35 XENP34598 (antibody, V domains shown)
VH: B1 VH
VL: B1 VL with T31S, V85T
B5: H1 L1.9 XENP34572 (antibody, V domains shown)
VH: B1 VH
VL: B1 VL with R30Q, T31S
B6: H1 L1.42 XENP34605 (antibody, V domains shown)
VH: B1 VH
VL: B1 VL with T31S, S92G
B7: H1 L1.36 XENP34599 (antibody, V domains shown)
VH: B1 VH
VL: B1 VL with T31S, R91E
B8: H1.5 L1 XENP34461 (antibody, V domains shown)
VH: B1 VH with P9S
VL: B1 VL with T31S
B9: H1.26 L1 XENP34482 (antibody, V domains shown)
VH: B1 VH with F34S
VL: B1 VL with T31S
B10: H1.32 L1 XENP34488 (antibody, V domains shown)
VH: B1 VH with W36M
VL: B1 VL with T31S
B11: H1.34 L1 XENP34490 (antibody, V domains shown)
VH: B1 VH with G37H
VL: B1 VL with T31S
B12: H1.36 L1 XENP34492 (antibody, V domains shown)
VH: B1 VH with G37S
VL: B1 VL with T31S
B13: H1.20 L1 XENP34476 (antibody, V domains shown)
VH: B1 VH with S32T
VL: B1 VL with T31S
B14: H1.3 L1 XENP34459 (antibody, V domains shown)
VH: B1 VH with L2V, V4L
VL: B1 VL with T31S
B15: H1.28 L1 XENP34484 (antibody, V domains shown)
VH: B1 VH with S35A
VL: B1 VL with T31S
B16: H1.16 L1 XENP34472 (antibody, V domains shown)
VH: B1 VH with N31Q
VL: B1 VL with T31S
B17: H1.4 L1 XENP34460 (antibody, V domains shown)
VH: B1 VH with V4L
VL: B1 VL with T31S
B18: H1.14 L1 XENP34470 (antibody, V domains shown)
VH: B1 VH with N31S
VL: B1 VL with T31S
B19: H1 L1 WT XENP28298 (antibody, V domains shown)
VH: B1 VH
VL: B1 VL with T31S
B20: H1.12 L1 XENP34468 (antibody, V domains shown)
VH: B1 VH with N31E
VL: B1 VL with T31S
B21: H1.31 L1 XENP34487 (antibody, V domains shown)
VH: B1 VH with W36I
VL: B1 VL with T31S
B22: H1.2 L1 XENP34458 (antibody, V domains shown)
VH: B1 VH with L2V
VL: B1 VL with T31S
B23: H1.10 L1 XENP34466 (antibody, V domains shown)
VH: B1 VH with I29V
VL: B1 VL with T31S
B24: H1.9 L1 XENP34465 (antibody, V domains shown)
VH: B1 VH with I29F
VL: B1 VL with T31S
B25: H1.33 L1 XENP34489 (antibody, V domains shown)
VH: B1 VH with G37A
VL: B1 VL with T31S
B26: H1.15 L1 XENP34471 (antibody, V domains shown)
VH: B1 VH with N31T
VL: B1 VL with T31S
B27: H1.25 L1 XENP34481 (antibody, V domains shown)
VH: B1 VH with F34H
VL: B1 VL with T31S
B28: H1.30 L1 XENP34486 (antibody, V domains shown)
VH: B1 VH with S35Y
VL: B1 VL with T31S
B29: H1.1 L1 XENP28299 (antibody, V domains shown)
VH: B1 VH with M103V
VL: B1 VL with T31S
B30: H1.8 L1 XENP34464 (antibody, V domains shown)
VH: B1 VH with G27Y
VL: B1 VL with T31S
B31: H1.29 L1 XENP34485 (antibody, V domains shown)
VH: B1 VH with S35T
VL: B1 VL with T31S
B32: H1.18 L1 XENP34474 (antibody, V domains shown)
VH: B1 VH with S32A
VL: B1 VL with T31S
B33: H1.27 L1 XENP34483 (antibody, V domains shown)
VH: B1 VH with F34Y
VL: B1 VL with T31S
B34: H1.6 L1 XENP34462 (antibody, V domains shown)
VH: B1 VH with E16Q
VL: B1 VL with T31S
B35: H1.37 L1 XENP34493 (antibody, V domains shown)
VH: B1 VH with I39V
VL: B1 VL with T31S
B36: H1.23 L1 XENP34479 (antibody, V domains shown)
VH: B1 VH with Y33G
VL: B1 VL with T31S
B37: H1.21 L1 XENP34477 (antibody, V domains shown)
VH: B1 VH with Y33A
VL: B1 VL with T31S
B38: H1.13 L1 XENP34469 (antibody, V domains shown)
VH: B1 VH with N31G
VL: B1 VL with T31S
B39: H1.22 L1 XENP34478 (antibody, V domains shown)
VH: B1 VH with Y33D
VL: B1 VL with T31S
B40: H1.11 L1 XENP34467 (antibody, V domains shown)
VH: B1 VH with N31D
VL: B1 VL with T31S
B41: H1.19 L1 XENP34475 (antibody, V domains shown)
VH: B1 VH with S32G
VL: B1 VL with T31S
B42: H1.38 L1 XENP34494 (antibody, V domains shown)
VH: B1 VH with P42A
VL: B1 VL with T31S
B43: H1.17 L1 XENP34473 (antibody, V domains shown)
VH: B1 VH with N31R
VL: B1 VL with T31S
B44: H1.7 L1 XENP34463 (antibody, V domains shown)
VH: B1 VH with T23A
VL: B1 VL with T31S
B45: H1.24 L1 XENP34480 (antibody, V domains shown)
VH: B1 VH with Y33H
VL: B1 VL with T31S

Where a chain is given by its changes, count along the chain named.

T1 sequence (P37173 23-166): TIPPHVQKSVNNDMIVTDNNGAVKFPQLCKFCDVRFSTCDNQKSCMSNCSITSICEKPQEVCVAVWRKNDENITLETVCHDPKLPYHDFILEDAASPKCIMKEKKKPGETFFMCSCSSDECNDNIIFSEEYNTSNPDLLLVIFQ

One test has as its target T1, human TGFßRII (antigen of the Octet experiments) (human, UniProt P37173 23-166). As to the kind of experiment: BLI (Octet). A general note: Biolayer interferometry detects binding as a change in optical thickness at a sensor tip.
Broadly, the Kd is a measure of binding affinity in units of concentration. Higher therefore signals lower affinity. In turn, B1 came in with a Kd of 0.539 nM.
Still for that read-out and setting: the result for B2 reads 23.1 nM.
The molecule B3 returned a Kd of 0.782 nM.
On the same count and under the same terms, the value for B4 was 0.344 nM; that for B5 was 16.4 nM.
As for B6, the Kd is 2.94 nM.
The same measure, in the same setting: the result for B7 reads 59.3 nM.

The target of the next test is T1, human TGFßRII (antigen of the Octet …). Nature of the test: BLI (Octet). This is another data set of the same source.
B8 returned a Kd of 0.245 nM.
Still for that read-out and setting: the value for B9 was 0.273 nM; that for B10 was 2.47 nM; that for B11 was 5.73 nM.
B12: the Kd is 1.76 nM.
Still for that read-out and setting: the result for B13 reads 0.559 nM.
Same read-out and setting: the value for B14 was 0.001 nM.
The same measure, in the same setting: the result for B15 reads 3.6 nM; that for B16, 0.407 nM; that for B17, 0.128 nM.
For the molecule B18, the Kd worked out at 0.181 nM. This Kd and that of the molecule before are within 1.5-fold of each other.
As to B19, the Kd was 0.001 nM. This Kd lies about 180-fold lower than the previous one.
On the same count and under the same terms, the value for B20 was 0.374 nM; that for B21 was 7.28 nM; that for B22 was 0.001 nM.
Still for that read-out and setting: the result for B23 reads 0.182 nM; that for B24, 0.496 nM; that for B25, 0.414 nM.
Still for that read-out and setting: the result for B26 reads 0.0115 nM; that for B27, 0.415 nM.
In turn, B28 came in with a Kd of 5.9 nM.
Still for that read-out and setting: the result for B29 reads 0.325 nM.
B30: the Kd was found to be 0.238 nM.
B31: the Kd amounted to 1.79 nM.
The same measure, in the same setting: the value for B32 was 0.205 nM; that for B33 was 0.809 nM.
Same read-out and setting: the value for B34 was 0.0242 nM; that for B35 was 0.391 nM.
The same measure, in the same setting: the result for B36 reads 0.767 nM.
Turning to B37, binding was put at a Kd of 0.455 nM.
Molecule B38 registered a Kd of 1 nM.
Molecule B39 came in with a Kd of 1.97 nM.
The same measure, in the same setting: the result for B40 reads 0.419 nM.
Still for that read-out and setting: the value for B41 was 0.836 nM; that for B42 was 0.325 nM.
The same measure, in the same setting: the value for B43 was 0.292 nM.
As to B44, the Kd is 0.316 nM.
Same read-out and setting: the value for B45 was 0.199 nM.
